Assay results: patent US20230167188A1 (BIOLOJIC DESIGN, published 2023)

Key:
[1] = biological target: T1, recombinant human TNFR2 with 6×his tag (human, UniProt P20333 23-257, limits assumed); test: yeast surface display, TNFR2-His titrated, flow cytometry MFI
T1 construct: Bought (Reprokine, Israel); also called TNFR2-His; hTNFR2-His; not shown: 6xHis tag
T1 sequence (looked up): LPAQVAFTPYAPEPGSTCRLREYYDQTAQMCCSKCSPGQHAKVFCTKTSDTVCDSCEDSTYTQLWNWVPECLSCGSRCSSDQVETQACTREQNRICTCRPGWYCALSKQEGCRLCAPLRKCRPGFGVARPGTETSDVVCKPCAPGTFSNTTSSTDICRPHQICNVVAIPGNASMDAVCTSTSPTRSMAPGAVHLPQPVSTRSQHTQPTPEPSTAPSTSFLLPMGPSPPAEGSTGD
Procedure: To determine the effective concentration₅₀ (EC₅₀) of TNFR2 binding to yeast scFv or Fab clones (EC₅₀— TNFR2 binding), specific clones were labeled at TNFR concentrations ranging from 0.1 nM to 1000 nM and analyzed on an FACS. Median fluorescence intensity (MFI) was determined for each TNFR2 concentration and EC₅₀ (TNFR2 binding) was calculated using Prisma 8 GraphPad (GraphPad, San Diego, USA) software.

[2] = biological target: T1, recombinant human TNFR2 with 6×his tag; test: ELISA, IgG coated, hTNFR2-His titrated, anti-His-HRP
Procedure: IgG binding affinity to TNFR2 was examined by ELISA. 96 well plates (Greiner Bio-One high binding) were coated with (50 ng/well) of the analyzed antibody and incubated overnight at 4° C. The plates were then washed three times with 300 μl PBS buffer containing 0.05% Tween 20 (PBS-T), blocked with 300μ PBS-T supplemented with 1% to 2% BSA, and incubated for 1 hour at room temperature. Antibodies-coated plates were washed three times with 300 μl PBS-T and incubated with serial dilutions of test ligand hTNFR2-His (Reprokine, Israel) in a final volume of […] for 1-2 hours. Plates were then washed three times with 300 μl PBS-T and incubated with 50 μl anti-HIS-HRP (Santa Cruz Biotechnology, USA, SC-8036HRP) conjugate that was diluted 1:250 in PBS. After an additional wash step of six washes, the reaction was developed with […] tetramethylbenzidine (TMB) reagent (Southern biotech, USA), and stopped with […] 0.5N H₂SO₄. Detection was done on a Synergy LX BioTek (BioTek, USA) plate reader with an absorbance filter set to […]. The binding affinity was determined by fitting the data to a specific binding non-linear regression model on Prisma 8 GraphPad software.
To test binding affinity of clones reformatted as IgG1 and IgG1LALA to TNFR2, an ELISA EC₅₀ binding experiment was conducted for each antibody.

[3] = biological target: T2, human TNFR2 (residues 1-461) expressed on HEK-TNFR2 reporter cells (human, UniProt P20333 23-461); test: cell-based or functional assay
T2 sequence (looked up): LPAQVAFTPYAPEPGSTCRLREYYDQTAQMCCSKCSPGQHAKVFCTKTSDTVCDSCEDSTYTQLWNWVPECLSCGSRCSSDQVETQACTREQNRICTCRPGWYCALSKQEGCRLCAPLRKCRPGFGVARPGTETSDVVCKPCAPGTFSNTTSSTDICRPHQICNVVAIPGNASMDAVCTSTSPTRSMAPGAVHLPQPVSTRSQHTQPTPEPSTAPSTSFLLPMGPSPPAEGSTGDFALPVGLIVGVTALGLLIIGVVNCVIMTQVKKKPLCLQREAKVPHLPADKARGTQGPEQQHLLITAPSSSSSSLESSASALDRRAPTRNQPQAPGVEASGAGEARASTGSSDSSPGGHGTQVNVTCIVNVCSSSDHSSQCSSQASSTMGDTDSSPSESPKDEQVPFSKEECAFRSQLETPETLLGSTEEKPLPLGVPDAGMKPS

B1: CID_324 (scFv)
scFv: EVQLVQSGPELKKPGASVKVSCKGSGYTFTDLGINWVRQAPGQGLEWMGWINTHTGEPFYADDFKGRFVFSLDTSVSTAYLQISSLKAEDTAVYYCTRDHPLGLDYWGQGTLVTVSSDIQVTQSPSSLSASVGDRVTITCITSQSVDVNGVSYLNWYQQKPGKVPKFLIYKASRLRSGVPSRFSGSGSGTDFTLTISSLQPEDVATYYCQQSREDPYTFGQGTKVEIK
EC50 [1]: 5.6 nM

B2: CID_325 (scFv)
scFv: EVQLVQSGPELKKPGASVKVSCKASGYTFTDLGIGWVRQAPGQGLEWMGWINTHTGEPFYADDFKGRFVFSLDTSVSTAYLQISSLKAEDTAVYYCTRDHPLGLDYWGQGTLVTVSSDIQVTQSPSSLSASVGDRVTITCITSQSVDVNGLSYLNWYQQKPGKVTKFLIYKASNLGSGVPSRFSGSGSGTDFTLTISSLQPEDVATYYCQQSREDPYTFGQGTKVEIK
EC50 [1]: 2.9 nM

B3: CID_326 (scFv)
scFv: EVQLVQSGPELKKPGASVKVSCKASGYTFTDLGMNWVRQAPGQGLEWMGWINTHTGKPFYADDFKGRFVFSLDTSVSTAYLQISSLKAEDTAVYYCTRDHPLGLDYWGQGTLVTVSSDIQVTQSPSSLSASVGDRVTITCITSQSVDVNGVSYLNWYQQKPGKVPKFLIYKASNLRSGVPSRFSGSGSGTDFTLTISSLQPEDVATYYCQQSREDPYTFGQGTKVEIK
EC50 [1]: 6 nM

B4: CID_323 (scFv)
scFv: EVQLVQSGPELKKPGASVKVSCKASGYTFTDLGMNWVRQAPGQGLEWMGWINTHTGMPFYADDFKGRFVFSLDTSVSTAYLQISSLKAEDTAVYYCARDHPLGLDYWGQGTLVTVSSDIQVTQSPSSLSASVGDRVTITCITSQSVDVNGVSYLNWYQQKPGKVPKFLIYKASNLRPGVPSRFSGSGSGTDFTLTISSLQPEDVATYYCQQSREDPYTFGQGTKVEIK
EC50 [1]: 5.2 nM

B5: CID_327 (scFv)
scFv: EVQLVQSGPELKKPGASVKVSCKGSGYTFTDLGMGWVRQAPGQGLEWMGWINTQTGEPFYADDFKGRFVFSLDTSVSTAYLQISSLKAEDTAVYYCTRDHPLGLDYWGQGTLVTVSSDIQVTQSPSSLSASVGDRVTITCITSQSVDVAGVSYLNWYQQKPGKVPKFLIHKASNLRSGVPSRFSGSGSGTDFTLTISSLQPEDVATYYCQQAREDPYTFGQGTKVEIK
EC50 [1]: 4.5 nM

B6: CID_329 (scFv)
scFv: EVQLVQSGPELKKPGASVKVSCKGSGYTFTDLGINWVRQAPGQGLEWMGWINTHTGEPFYADDFKGRFVFSLDTSVSTAYLQISSLKAEDTAVYFCTRDHPLGLDYWGQGTLVTVSSDIQVTQSPSSLSASVGDRVTITCITSQSVDVNGVSYLNWYQQKPGKVPKFLIYKASNLRPGVPSRFSGSGSGTDFTLTISSLQPEDVATYYCQQSREDPYTFGQGTKVEIK
EC50 [1]: 8.6 nM

B7: CID_330 (scFv)
scFv: EVQLVQSGPELKKPGASVKVSCKGSGYTFTDLGINWVRQAPGQGLEWMGWINTHTGEPYYADDFKGRFVFSLDTSVSTAYLQISSLKAEDTAVYYCARDHPLGLDYWGQGTLVTVSSDIQVTQSPSSLSASVGDRVTITCITSQSVDVNGVSYMNWYQQKPGKVPKFLIYKAVNLRPGVPSRFSGSGSGTDFTLTISSLQPEDVATYYCQQSREDPYTFGQGTKVEIK
EC50 [1]: 17.7 nM

B8: CID_328 (scFv)
scFv: EVQLVQSGPELKKPGASVKVSCKGSGYTFTDLGMNWVRQAPGQGLEWMGWINTQTGEPFYADDFKGRFVFSLDTSVSTAYLQISSLKAEDTAVYFCARDHPLGLDYWGQGTLVTVSSDIQVTQSPSSLSASVGDRVTITCITSQSVDVNGVSYLNWYQQKPGKVPKFLIYKASILRSGVPSRFSGSGSGTDFTLTISSLQPEDVATYYCQQSREDPYTFGQGTKVEIK
EC50 [1]: 5.7 nM

B9: CID_436 (scFv)
scFv: DIQMTQSPILLSASVGDRVTITCRASQDVSTAVAWSQQRTNGSPRLLIYSASSLYSGVPSRFSGSRSGTDFTLTISSLQPEDIADYYCQQPTYTPPTFGAGTKVEIKEVQLVESGGGLVQPGGSLRLSCAASGFNIRDTYIHWVRQSPGKGLEWVADIDPDNGDTRYADSVKGRFTISADTSKNTAYLQMNSLRAEDTAIYYCSRDLADGYNAFDRWGQGTLVTVSS
EC50 [1]: 3.4 nM

B10: BDG30.113 (antibody, human IgG1, kappa, L234A L235A, V domains shown)
VH: EVQLVQSGPELKKPGASVKVSCKGSGYTFTDLGMGWVRQAPGQGLEWMGWINTQTGEPFYADDFKGRFVFSLDTSVSTAYLQISSLKAEDTAVYYCTRDHPLGLDYWGQGTLVTVSS
VL: DIQVTQSPSSLSASVGDRVTITCITSQSVDVAGVSYLNWYQQKPGKVPKFLIHKASNLRSGVPSRFSGSGSGTDFTLTISSLQPEDVATYYCQQAREDPYTFGQGTKVEIKR
notes: Human IgG1(L234A/L235A); also called IgG of CID_327
EC50 [2]: 2.5 nM
Functional Agonism EC50 (nM), NFkB-SEAP reporter [3]: 3.8 nM

B11: BDG30.114 (antibody, human IgG1, kappa, L234A L235A, V domains shown)
VH: EVQLVQSGPELKKPGASVKVSCKGSGYTFTDLGMNWVRQAPGQGLEWMGWINTQTGEPFYADDFKGRFVFSLDTSVSTAYLQISSLKAEDTAVYFCARDHPLGLDYWGQGTLVTVSS
VL: DIQVTQSPSSLSASVGDRVTITCITSQSVDVNGVSYLNWYQQKPGKVPKFLIYKASILRSGVPSRFSGSGSGTDFTLTISSLQPEDVATYYCQQSREDPYTFGQGTKVEIKR
notes: Human IgG1(L234A/L235A); also called IgG of CID_328
EC50 [2]: 2.2 nM
Functional Agonism EC50 (nM), NFkB-SEAP reporter [3]: 6.4 nM

B12: BDG30.086 (antibody, human IgG1, kappa)
heavy: not shown
light: DIQMTQSPSSLSASVGDRVTITCRASQDISTAVAWSQQKPGKAPKLLIYPASSLYSGVPSRFSGSRSGTDFTLTISSLQPEDFATYYCQQHPYTPPTFGQGTKVEIKRTVAAPSVFIFPPSDEQLKSGTASVVCLLNNFYPREAKVQWKVDNALQSGNSQESVTEQDSKDSTYSLSSTLTLSKADYEKHKVYACEVTHQGLSSPVTKSFNRGEC
notes: Human IgG1; also called IgG of CID_262
EC50 [2]: 8.1 nM
Functional Agonism EC50 (nM), NFkB-SEAP reporter [3]: 1.4 nM

B13: BDG30.116 (antibody, human IgG1, kappa, L234A L235A)
heavy: not shown
light: DIQMTQSPSSLSASVGDRVTITCRASQDISTAVAWSQQKPGKAPKLLIYPASSLYSGVPSRFSGSRSGTDFTLTISSLQPEDFATYYCQQHPYTPPTFGQGTKVEIKRTVAAPSVFIFPPSDEQLKSGTASVVCLLNNFYPREAKVQWKVDNALQSGNSQESVTEQDSKDSTYSLSSTLTLSKADYEKHKVYACEVTHQGLSSPVTKSFNRGEC
notes: Human IgG1(L234A/L235A); also called IgG of CID_262
EC50 [2]: 5.1 nM
Functional Agonism EC50 (nM), NFkB-SEAP reporter [3]: 3 nM

B14: BDG30.088 (antibody, human IgG1, kappa)
heavy: not shown
light: DIQMTQSPSSLSASVGDRVTITCRASQDVSTAVAWYQQKPGKAPKLLIYPASSLYSGVPSRFSGSRSGTDFTLTISSLQPEDFATYYCQQPGYTPPTFGQGTKVEIKRTVAAPSVFIFPPSDEQLKSGTASVVCLLNNFYPREAKVQWKVDNALQSGNSQESVTEQDSKDSTYSLSSTLTLSKADYEKHKVYACEVTHQGLSSPVTKSFNRGEC
notes: Human IgG1; also called IgG of CID_266
EC50 [2]: 13.1 nM
Functional Agonism EC50 (nM), NFkB-SEAP reporter [3]: 49 nM

B15: BDG30.085 (antibody, human IgG1, kappa)
heavy: not shown
light: DIQMTQSPSSLSASVGDRVTITCRASQDISTAVAWSQQKPGKAPKLLIYSASSLYSGVPSRFSGSRSGTDFTLTISSLQPEDFATYYCQQPSLTPPTFGQGTKVEIKRTVAAPSVFIFPPSDEQLKSGTASVVCLLNNFYPREAKVQWKVDNALQSGNSQESVTEQDSKDSTYSLSSTLTLSKADYEKHKVYACEVTHQGLSSPVTKSFNRGEC
notes: Human IgG1; also called IgG of CID_261
EC50 [2]: 4.3 nM
Functional Agonism EC50 (nM), NFkB-SEAP reporter [3]: 24.7 nM

B16: BDG30.087 (antibody, human IgG1, kappa)
heavy: not shown
light: DIQMTQSPSSLSASVGDRVTITCRASQDVSTAVAWSQQKPGKAPKLLIYPASSLYSGVPSRFSGSRSGTDFTLTISSLQPEDFATYYCQQPTLTPPTFGQGTKVEIKRTVAAPSVFIFPPSDEQLKSGTASVVCLLNNFYPREAKVQWKVDNALQSGNSQESVTEQDSKDSTYSLSSTLTLSKADYEKHKVYACEVTHQGLSSPVTKSFNRGEC
notes: Human IgG1; also called IgG of CID_264
EC50 [2]: 18.4 nM
Functional Agonism EC50 (nM), NFkB-SEAP reporter [3]: 3.9 nM
